B1: HDV Ribozyme (parent)
chain: GGCCGGCAUGGUCCCAGCCUCCUCGCUGGCGCCGGCUGGGCAACAUUCCGAGGGGACCGUCCCCUCGGUAAUGGCGAAUGGGACCCA

Variants of: B1
Experiment: self-cleavage, relative activity (ratio to wild type); higher = more cleavage; co-transcriptional
In the case of A78G A83U, the self-cleavage is reported as 0.0437.
G2C C61A showed a self-cleavage of 0.0391.
In the case of G2A G53U, the self-cleavage is reported as 0.145.
C58A C75A gave a self-cleavage of 0.201.
C13U C15U gave a self-cleavage of 0.733.
Variant C4U G11A has a self-cleavage of 0.225.
C63G C75A gave a self-cleavage of 0.111.
With G40A U47C the self-cleavage was 1.03.
For C49G A71C, the self-cleavage was 0.302.
G2C C75A showed a self-cleavage of 0.
With G76U G82A the self-cleavage was 0.343.
Work on G11A C58A yielded a self-cleavage of 0.554.
For G17U C62A, the self-cleavage was 0.429.
C41U G81C gave a self-cleavage of 0.168.
In the case of A51G G55A, the self-cleavage is reported as 0.972.
For G54A C61G, the self-cleavage was 0.881.
Variant G28A G76U has a self-cleavage of 0.0923.
For G11A U60C, the self-cleavage was 0.43.
In the case of C13G C41G, the self-cleavage is reported as 0.
Work on U9C C32A yielded a self-cleavage of 0.
C61U G73C gave a self-cleavage of 0.629.
For A42G G74U, the self-cleavage was 0.0791.
For G28C C75U, the self-cleavage was 0.0361.
G34C C66A showed a self-cleavage of 0.35.
In the case of A71U U79A, the self-cleavage is reported as 0.782.
A43G A87U showed a self-cleavage of 0.554.
G10U G17A showed a self-cleavage of 0.704.
For A8G A56G, the self-cleavage was 0.719.
C58G A78G gave a self-cleavage of 0.723.
Work on G10U G74A yielded a self-cleavage of 0.107.
G34U C61U showed a self-cleavage of 0.208.
With C21G C57A the self-cleavage was 0.166.
A16C U60G showed a self-cleavage of 0.939.
In the case of G31C C44U, the self-cleavage is reported as 0.106.
Variant G29C A77C has a self-cleavage of 0.0639.
Work on C33A A56G yielded a self-cleavage of 0.324.
G10U C62U gave a self-cleavage of 0.722.
Work on A8U G53A yielded a self-cleavage of 0.665.
With A43U A71U the self-cleavage was 0.565.
C75G A87U gave a self-cleavage of 0.143.
In the case of G1A G31C, the self-cleavage is reported as 0.0292.
With A16U A43C the self-cleavage was 0.32.
G28A C57G showed a self-cleavage of 0.
For C61U C85G, the self-cleavage was 0.981.
With C15U U72C the self-cleavage was 0.598.
U46A A56C showed a self-cleavage of 0.802.
With C48G U60G the self-cleavage was 1.01.
With G1A C26U the self-cleavage was 0.
C33G G73A showed a self-cleavage of 0.0308.
G17U A43C showed a self-cleavage of 0.203.
Work on G6U U69G yielded a self-cleavage of 0.375.
Variant C41U G55C has a self-cleavage of 0.885.
In the case of G17C A42G, the self-cleavage is reported as 0.
With G5A U12A the self-cleavage was 0.
For C13A G80C, the self-cleavage was 0.125.
For U12C G76U, the self-cleavage was 0.489.
For G40A G50C, the self-cleavage was 0.92.
Variant G67C A78G has a self-cleavage of 0.492.
A16C C86G gave a self-cleavage of 0.653.
C24U G82U showed a self-cleavage of 0.0692.
With A83C A87G the self-cleavage was 0.302.
For G6U G54U, the self-cleavage was 0.643.
For A42C G81A, the self-cleavage was 0.104.
U12C A45G gave a self-cleavage of 0.277.
G52C C84G gave a self-cleavage of 0.978.
For G74C G81A, the self-cleavage was 0.0875.
For U37G U69A, the self-cleavage was 0.119.
Variant C13G has a self-cleavage of 0.078.
U47C G73C gave a self-cleavage of 0.374.
G11C A71U gave a self-cleavage of 0.252.
C22U showed a self-cleavage of 0.736.
A51G G80U gave a self-cleavage of 0.229.
With C66G G67C the self-cleavage was 1.01.
A8U C18G showed a self-cleavage of 0.172.
With G11U A71G the self-cleavage was 0.302.
Variant G28U G53U has a self-cleavage of 0.124.
Work on G34U U60G yielded a self-cleavage of 0.166.
Work on G5U C14A yielded a self-cleavage of 0.0791.
Work on C18G C32A yielded a self-cleavage of 0.166.
Variant G50C C86G has a self-cleavage of 0.944.
Variant U9G U27G has a self-cleavage of 0.935.
Variant C64A G67A has a self-cleavage of 0.369.
Work on C3G U9G yielded a self-cleavage of 0.789.
In the case of U23C G29U, the self-cleavage is reported as 0.142.
With C15U U79G the self-cleavage was 0.703.
For U12C C36A, the self-cleavage was 0.142.
With C36A C49A the self-cleavage was 0.0554.
In the case of G34C G82U, the self-cleavage is reported as 0.0652.
C7A A87C showed a self-cleavage of 0.514.
In the case of G40A C44A, the self-cleavage is reported as 0.692.
G73U G82U showed a self-cleavage of 0.224.
Variant C36U C62G has a self-cleavage of 0.222.
For G1U U65A, the self-cleavage was 0.191.
Variant U23C C61U has a self-cleavage of 0.975.
G5C U27C showed a self-cleavage of 0.
For C41U A45C, the self-cleavage was 0.569.
Variant G82C C84A has a self-cleavage of 0.383.
For G68U U72G, the self-cleavage was 0.359.
Variant U37G G39U has a self-cleavage of 0.
For G6C G80A, the self-cleavage was 0.0665.
Work on G17U C61A yielded a self-cleavage of 0.456.
Variant U12G G82C has a self-cleavage of 0.633.
For G29C A42U, the self-cleavage was 0.0314.
With C14U A70G the self-cleavage was 0.931.
With G10A G53A the self-cleavage was 0.841.
Variant C7U A83G has a self-cleavage of 0.475.
Variant C48G A83C has a self-cleavage of 0.573.
With A77G G80U the self-cleavage was 0.244.
With G5C A71G the self-cleavage was 0.0923.
A45C G68A gave a self-cleavage of 0.686.
With G5A A42C the self-cleavage was 0.135.
In the case of C4U C41U, the self-cleavage is reported as 0.567.
Variant A8C G59A has a self-cleavage of 1.07.
G29A G54C showed a self-cleavage of 0.113.
U23G U69G showed a self-cleavage of 0.431.
Work on C64G G81A yielded a self-cleavage of 0.222.
Work on U46C C64G yielded a self-cleavage of 0.875.
With C26G G54U the self-cleavage was 0.941.
G5C C13U gave a self-cleavage of 0.133.
With G1A G76A the self-cleavage was 0.462.
C41U A43G gave a self-cleavage of 0.356.
U37C C75G showed a self-cleavage of 0.0627.
For C63A G82A, the self-cleavage was 0.408.
In the case of C75U A78U, the self-cleavage is reported as 0.264.
U27C U69C gave a self-cleavage of 0.931.
In the case of C61U C75A, the self-cleavage is reported as 0.201.
C36U A78U showed a self-cleavage of 0.154.
In the case of G52U C64A, the self-cleavage is reported as 0.911.
Variant U12G A71C has a self-cleavage of 0.712.
For G6C G31U, the self-cleavage was 0.
Work on U20A G81A yielded a self-cleavage of 0.
Variant C4A G53U has a self-cleavage of 0.174.
Variant G5C A70U has a self-cleavage of 0.
In the case of U47G G50A, the self-cleavage is reported as 0.957.
With G50U C58G the self-cleavage was 0.89.
A42C G53A gave a self-cleavage of 0.289.
Work on A51C yielded a self-cleavage of 0.972.
C26U A43U gave a self-cleavage of 0.708.
In the case of C4U U79A, the self-cleavage is reported as 0.755.
A16U G29A showed a self-cleavage of 0.0378.
G55C G74U gave a self-cleavage of 0.652.
In the case of C49A G50U, the self-cleavage is reported as 0.816.
Work on C19A C66G yielded a self-cleavage of 0.115.
With A16U C63G the self-cleavage was 0.831.
For C7G G80U, the self-cleavage was 0.0462.
In the case of C7U C49G, the self-cleavage is reported as 0.665.
C26A G38A showed a self-cleavage of 0.153.
With A70C A87C the self-cleavage was 0.831.
For C14G G81U, the self-cleavage was 0.923.
U23C C33A showed a self-cleavage of 0.0378.
G1A C84U gave a self-cleavage of 0.229.
G35C U69G gave a self-cleavage of 0.277.
C22A G40C gave a self-cleavage of 0.0282.
With G5A G82U the self-cleavage was 0.0354.
For G11U U47C, the self-cleavage was 0.156.
For G35A C84U, the self-cleavage was 0.464.
C61U C63G gave a self-cleavage of 0.243.
Variant G31A U37G has a self-cleavage of 0.242.
U12A A45U showed a self-cleavage of 0.
In the case of U46A C75G, the self-cleavage is reported as 0.0594.
For C26U C66U, the self-cleavage was 1.02.
G5A A83G gave a self-cleavage of 0.297.
G6U A83C gave a self-cleavage of 0.0852.
With C58U U60G the self-cleavage was 1.2.
Work on A45U G82U yielded a self-cleavage of 0.529.
Variant A16G C36G has a self-cleavage of 0.
U69G C84A showed a self-cleavage of 0.779.
